Results reported in PMC8769549, “The intrinsically disordered SARS-CoV-2 nucleoprotein in dynamic complex with its viral partner nsp3a”.

Target: N234 (nucleoprotein domains N2-N3-N4) (SARS-CoV-2 (NC_045512.2), UniProt P0DTC9 47-364)
Test: NMR; 1D NMR; 100 uM RNA, 50 uM N234
Settings: protein: recombinant; tags: N-terminal His6-TEV, cleaved; chain copies: 2; single strand

AAAAAA (ssRNA) [polyA hexameric RNA]
binding result: binds
